Results: the DeepSol protein solubility set

experiment: soluble on expression in E. coli; label from the status in PepcDB or PDB records

Row | Sequence | soluble on expression in E. coli
1 | MGSDKIHHHHHHMSFGVNRDESSAFCQRAFEAENWRLAASAGLAPTLVAQSIDGRCYLSPLLEDGGWQQRYQEVPLSQITCDAAFFTSPGQTHAGSDREPDGLTHTTRLLLDLLLGLQALPVPANVKGFTTQWQDYETALDASQSHWARNPRWQEAYQALAAEFTEVEAAMARLDAMGLSCQYSHRDLTPHNLLCHQGKLFCIDFEYACASHPLWDLAAVLASHNLPGRERRDLMDAYLYAHPQLESSMSSRVVDAVALHWYFGAIWALLMAGQSGDDDYLCWFHRYLQLAKS | not soluble
2 | ELLPDVRLLYGETPFARTPVMYEPGIIILFSGHKIGYINERVFRYDANEYLLLTVPLPFECETYATSEVPLAGLRLNVDILQLQELLMDIGEDEHFQPSMAASGINSATLSEEILCAAERLLDVMERPLDARILGKQIIREILYYVLTGP | not soluble
3 | AMADTIVAVELDSYPNTDIGDPNYPHIGIDIKSIRSKSTARWNMQTGKVGTVHISYNSVAKRLSAVVSYSGSSSTTVSYDVDLNNVLPEWVRVGLSATTGLYKETNTILSWSFTSKLKTNSIADANSLHFSFNQFSQNPKDLILQGDAFTDSDGNLQLTKVSSSGDPQGNSVGRALFYAPVHIWEKSAVVASFDATFTFLIKSPDREPADGITFFIANTDTSIPSGSGGRLLGLFPDAN | soluble
4 | MGTRRDVRQEMLDDVQKKLMSLANSSEGKVDKVLMRNLFIGHFHTPKNQRHEVLRLMGSILGVRREEMEQLFHDDQGSVTRWMTGWLGGGSKSVPNTPLRPNQQSVVNSSFSELFVKFLETESHPSIPPPKLSVHDMKPLDSPGRRKRDTNAPESFKDTAESRSGRRTDVNPFLAPRSAAVPLINPAGLGPGGPGIFFLEHHHHHH | not soluble
5 | MSLKATSSDDKVTFHALNGDVKVPKNPKRIAVQNYPDEVASLGANVVGTDSWAFPNTFLSKDQKKNMVDLGAPKFNMEKLIAQNPDLIITVDKDQVADYQKVAPTVLVNYKDLSGMNKSLDYFAKLLNREDEKASFLKNFKKEADKQKEKLAKVDVKPAKNTISLLELQGDKVYAFGDNFARGGQALTTGLGFKESSKMAELSKGVGYAEVNTESLGEFDADYIFIDFADKDKEQYAALKNNPAWQNLKAVKEGHVITMDYDKVYFFGGPTAAKEELSLYTDAIIKATKEGHHHHHH | soluble
6 | MGSDKIHHHHHHLILNWPQSDSEHLMVSSEQMQNIEKEMFSMGMPVEALMEKVGIGISSWILDRHGLIENGAIVLVGPGHNGGDGLVVARELYMAGVDISIWCPFPLKKQLTQKHFHYAMQIGIENLERKPDSNSDLLWIEALFGLGQSRIISDEIIRLLNSKKTFSPEKLISIDVPAGLDSDNGNIVSNTSCKASSSLTLGLFKSGLIQDSAIDYVGNLERVDIGIPDKILAGFPETQPLRISFSDLSTFVWPMLSKSKSKYQRGRVLVIAGSEKYRGAASLALNGALASGVGSVSAFLPNSVSSALWITHPEVLLLGDLTAFQDGSSDFSKVLNEVDLNRFDSILLGPGLGIADEKDCFGSDLQDFKGLLVLDADAINRLSITSKGWEWLNDREGPTWLTPHLEEFKRLFPLIDCSNPLKAGIEAAKTCSSSVLLKCAHSVISDPEGKTWQIGQVNSSVARTGLGDVLAGFVSGMGASGLASDKKLDTSLLAASALMHAYAGAFSIKGSTASTICTFLGELIKKEST | not soluble
7 | GMLTENPVLQAIRQRRSIRRYTDEAVSDEAVRLILEAGIWAPSGLNNQPCRFLVIRADDPRCDILAAHTRYGHIVRGAKVIILVFLDREAMYNEVKDHQAAGAAVQNMLLAAHALQLGAVWLGEIINQAATLLPALALDPARLSFEAAIAAGHPAQNGSSSRRPLAELLLEEPFPQPE | soluble
8 | QKGRVETRRVVHIMDFQRGKNLRYQLLQLVEPFGVISNHLILNKINEAFIEMATTEDAQAAVDYYTTTPALVFGKPVRVHLSQKYKRIK | soluble
9 | MGSDKIHHHHHHMLTLRQALLALFHQFETLFHYLEHLCRHRSAARPGRSSFLHSSVEIQVKETLIRNLWYVAGTSDEFAPGQLVGQTIVGLPLVLWRPEAGGEVVAFDGRCCHKRMPLAAGKLLADGTLECAYHGLCFDSAGKCVKIPSQPGRAIPSRAKLRPYPIVEQDGMVWIWMGDDANPALRPPRIPELASPEWEAIRVQNAEVPTNYLLLIENLLDISHFYPLHDGNIGDIANSEIPVEFSHEGVQGNRSVTSVRKAESYRHPPYLEDFFGYELVDRHHSHSMISPAAIRVDLRCAPPGRLETEDERGYILTHLITPIDERHHRWRVIAACRAGHRWPADPSVSTVARVAEKFPGVIAQDLWALTEQQKMLDLADTHYLGEMHLRADTGILKAREIVRDMVAAEAQPASQAVAA | not soluble
10 | MNVSSSNEDTPNAPDMLSWCVHTQDNHPLPLPELKAKLLALGIDADTYALTTGLSMELEPTTLADAGYDRYQRPLLLTVDAARAWHAMRQAAVGDGIVLDAISGYRSYAYQFGILERKLAQGKTLQEILTVNAAPGFSEHHSGEALDIGMPGESPVEESFEGSSAFAWLHRHAGRFGFHLSYPRNNPHGIVYEPWHWRWRAR | not soluble
11 | MGSDKIHHHHHHMAQTVSIIVSPEDQVRLAEVIGDRNSPQKHVQRARIVLHSAEHRPVLEVARDIGISRPAVWRWQLRYAEQGVDGLLRDKTRKPGKPPLPLGTVARVLALPCSNPPGSVTHWTGRAVAKAVGISLRAVQRIWDAHHLQPHRLRTFKKSKDPAFTEKVEDVVGLYMEPPCHAVVLSIDEKSQIQALDRTQPGLPLKPGKCATMTHDYKRNGTTTLFAALNILDGTVLGRCMQKHRHQEFIKFLNAVERAVPAGKIIHAILDNYGTHKHPKVRQWLADHPRWVFHFTPTL | not soluble
12 | LSGSIYVLGGGENLKVTMMDAALKYAEANIPVIPLHWICEDGSCSCKTRSDCDSKGKHSLYTGWYNNSTTDVEQIRKWWTNVNVNKNLVLSKVS | not soluble
13 | MKIKEVRITGFRSYKDNTNVSGFSPRSNVVVGRNGSGKSNFFHAIQFVLSDEYAHLKEEQRLGLLHESTGPKVAHARVEITFDNSEKRLMAFENSEVKIVRQVGKKKDQYYIDNKMVPRAEVVNLMESAGFSRSNPYYIVKQGKINELATSPDAYKLKLLREVAGTRVYDERKEESLKILKETKMKTEKIQGLLKYIDERLQTLENEKEDLKEYQKLDKTKRSVEYTMYDNTNKEAIKEKTKLDEQKVELNQKDNNVKSQLNDVIAEMAKLKTDKKKLESLGRGLREDKETLQAEETKMVEEKMTLKLEIDSLNEENTRERQGRQNAEHSLQGVGDEIFKNEEELDTIKPEYAKLLEEESRLKTDIRIDESRAKEILAKQGQRSQFSSVDDRDKFLRNEIRRISGLIADNKEREETIQKELADVEREDEKLNNEIQSISRTIDENRYEMDTFAAKSTSLKQEYDAAYVAQQTAAREEKAIRDKIGNTEQDISAANDQLRRIVARPVYNGITGVRKVIEEFKHDNRNGQHDDVINGYYGTVIELAEVPDMFRTAVEVIAQNRLFYHVVETDRIATKILRKFNEMQLPGEINFFPMNRVSAPRQRDLSNNSNARPMSDVIDYEVQYDKVFKSITANVIIVRTLDQAARDLRNEGFDVVSVDGDQMSKKGVMTGGFIDKKRSKLELHTQKDRFTKELAELQKSLAEAEKMVRERTQEAEKIRNRMQQHENQIGDFHRKHRELTEAKNAISQQFYMVTSTKEPKKDQLLGIKNHLRELLAQKENFEQEIGSNMSSQLTSDEEQTVKKLRKKVDEMTKQLATVSRRRMDLMHRKNAIENLLTKKLYKTKESLTAKNPKFFLQRVDDISDNERRHKLENANAQLTSLLTRMESTRKQLATAISELQDYETKEKALQINIDNVLEQQRDLEKQQADFQLQYDKITAKEDEVKQKREDSLKKLILSRYSIKTRKNQFSYEISDSEEVGAKREPIEHRKLKISTFCLEYRAKLEKVHSNMRLLGALPTDTFSKWQNVKPRELEKKLLECVNELKKYENVNKKALDQYMTASSQKEELTKRMAEQKKSEDSIEELLKVLENRKYEAIDLTFKQVKKNFEQVFKQLVPHGRGKMQMRAREQRDDEEGINSVELYEGISVLVSFVSDDGDSETREMTQLSGGQKSLVALAIIFSIQKCDPAPFYLFDEIDAALDAQHRKSVADMIQSLSDQAQFVTTTFRPELLATAEKFYGVRFRNKVSHIDSVTREQAYDFVEDDTTHG | not soluble
